Reference: the supplement of paper PMC7125110
± gives the standard error. Variants at the floor of the assay were thinned out.

B1: glmS ribozyme (parent)
chain: AUAAAAGCGCCAGAACUACAGAAAUGUAGUUGACGAGGAGGAGGUUUAUCGAAUUUUCGGCGGAUGCCUCCAAA

What was measured:
Conditions in all cases: with glucosamine-6-phosphate
[1] = variants of: B1; assay: self-cleavage kobs at 640 uM GlcN6P; higher = faster cleavage; RNA array
Procedure, shortened: (§1)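 In situ transcription by E. coli RNA polymerase produced barcoded ribozyme variants on sequenced MiSeq chips, and a hybridised Cy3 probe tracked them at 37 °C. Glucosamine-6-phosphate was flowed in at 40 μM to 10 mM in HEPES/KCl/Mg(OAc)2 buffer. kcat and KM were taken from weighted Michaelis–Menten fits of kobs values from exponential decay fits.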

[2] = variants of: B1; assay: self-cleavage kobs at 2500 uM GlcN6P; higher = faster cleavage; RNA array
Procedure, shortened: as §1

[3] = variants of: B1; assay: self-cleavage kobs at 10000 uM GlcN6P; higher = faster cleavage; RNA array
Procedure, shortened: as §1

Variant | self-cleavage kobs at 640 uM GlcN6P [1] | self-cleavage kobs at 2500 uM GlcN6P [2] | self-cleavage kobs at 10000 uM GlcN6P [3]
AUAAAAGCGCCAGAACUACAGAAAUGUAGUUGACGAAGAGACGGUCUAUCGAAUUUUCGGCGGAUGCCUCCAAA | < 1e-05 s⁻¹ | – | –
AUAAAAGCGCCCGAACUACAGAAAUGUAGUUGACGAGGAGGAGGUUAAUAGAAUAUUUGGCGGGUGCCUCCAAA | < 1e-05 s⁻¹ | – | –
AUAAAAGCGCCUGAACUACAGAAAUGUAGUUGACGAGGAGGAGGUUUAUCGAAUUUUCGGCGGAUGCAUCCAAA | 7.24e-05 ± 3.4e-05 s⁻¹ | 2.89e-05 ± 1.2e-05 s⁻¹ | –
AUAAAAGCGCCAGAACUACAGAAAUGUAGUUGAUGAGGAGGAGGUUUAUCGAUUUUUCGGCGGAUGCCUGCAAA | 0.000145 ± 4.1e-05 s⁻¹ | – | –
AUAAAAGCGCCAGCAAUACAGAAAUGUAGUUGACGAGGAGGAUGUUUAUCGAAUUUUCGGCGGAUGCUUCCAAA | < 1e-05 s⁻¹ | < 1e-05 s⁻¹ | –
AUAAAACCGCCAGCACUACAGAAAUGUAGUUGACGAGGAGGAGGUUUAUCGUAUUUUCGGCGGAUGCCUCCAAA | < 1e-05 s⁻¹ | < 1e-05 s⁻¹ | –
AUAAAAGCGCCAGAAGUACAGAAAUGUAGUUGACCAGGAGGAGGUUUGUCGAAUUUCCGGCAGAUGACACCAAA | < 1e-05 s⁻¹ | < 1e-05 s⁻¹ | < 1e-05 s⁻¹
AUAAAAGCGCCAGAACUACAGAAAUGUAGAUGGCGAGGAGGAGGUUUAUCGAAUUUCCGGCGGAUGCCUCCAAA | < 1e-05 s⁻¹ | – | –
AUAAAAGCGCCAGAACUACAGAAAUGUAGUUGACGAAGAGAAGGUUUAUCGAAUUUUCGGCGGAUGCCUUCAAA | 0.00119 ± 0.00026 s⁻¹ | 0.00206 ± 0.00053 s⁻¹ | –
AUAAAAGCGCCAUAACUACAGAAAUGUAGUUGACGAGGAGGACGUUUAUCGAAUUUUCGGCGGGUGCCUCCAAA | < 1e-05 s⁻¹ | – | –
AUAAAAGCGCCAGAACUACAGAAAUGUACUUGACGAGGAGGAGGUUUAUCGAAUGUUCGGCGGAUGCCUCCAAA | 0.000107 ± 1.3e-05 s⁻¹ | 0.000164 ± 2.5e-05 s⁻¹ | 0.000757 ± 9.6e-05 s⁻¹
AUAAAAGCUGCAGAGCUACAGAAAUGUAGUUGACGAGUGGGAGGUUUAUCGUAUUUUCGGCGGAUGCCUCCAAA | < 1e-05 s⁻¹ | < 1e-05 s⁻¹ | < 1e-05 s⁻¹
AUAAAAGCGCCAGAACUACAGAAAUGUAGUUGACGAGGACGAGGUUUAUCGAAUUUUCGGCGGACGCCUCCAAA | 4.51e-05 ± 1.9e-05 s⁻¹ | – | 0.000172 ± 3.4e-05 s⁻¹
AUAAAAGCGUCAGAAUUACAGAAAUGUAGUUGACGAGGAGGAGGUUUAUCGAAUUUUCGGCGUAUGCCUCCAAA | < 1e-05 s⁻¹ | – | < 1e-05 s⁻¹
AUAAAAGCGGAAGAACUACAGAAAUGUAGUUGACGAGGAGGAGGUUUAUCGAAUUUUGGGCGUAUGCAUCCAAA | 0.000138 ± 3.5e-05 s⁻¹ | 0.000117 ± 3.3e-05 s⁻¹ | –
AUAAAAGCGCCAGAACUACAGAAAUGUAGUUGACGAGGAGGAGGUUGAACGGAUUUUCGGCGGAUGCCUCCAAA | < 1e-05 s⁻¹ | – | –
AUAAAAGCGCCAGAACUACAGAAAUGUAGUUGACGAGGAUGAGAUUUAUGGAAUUUUCGGCGGAUGCCUCGAAA | < 1e-05 s⁻¹ | < 1e-05 s⁻¹ | –
AUAAAAGAGCCAGAACUACAGAAAUGUAGUUGUCGAGGAGGAGGUUUAUCGAAUGUUCGGCGGAUGCCUCCAAA | < 1e-05 s⁻¹ | – | < 1e-05 s⁻¹
AUAAAAGCGCCAGAACUACAGAAAUGUAUUUAACGAGGAGGAGAUUUAUCGAAUUUUCGGCGGUUGCCUCCAAA | < 1e-05 s⁻¹ | – | –
AUAAAAGCGUCAGAACUACAGAAAUGUAGUUGACGAGGAGGAGGUUUAUCGCAUUUUCGGCGGAUACCUCCAAA | < 1e-05 s⁻¹ | < 1e-05 s⁻¹ | –
AUAAAAGCGCCAGAACUACAUAAAUUUAGUUGACGAGGAGGAGGUUUAUCGAAUUUUCGGCGGAGUCCGCCAAA | 0.000207 ± 8.9e-05 s⁻¹ | – | –
AUAAAAGCGCCGGAACUACAGAAAUGUAGUUGCCGAGGAGGAGGUUUAUAGAAUUUUCGGCGGAUGCGUCCAAA | 0.000144 ± 6.5e-05 s⁻¹ | 0.00016 ± 6.5e-05 s⁻¹ | –
AUAAAUGCGCCAGAACUACAGAAAUGUAGUUGACGAGGAGGAGGUUUAUCGAAUGUUCGGCGGCUGCCUCCAAA | < 1e-05 s⁻¹ | – | –
AUAAAAGCACCAGCACUACAGAAAUGUAGUUGACGGCGUGGAGGUUUAUCGAAUUUUCGGCGGAUGCCUCCAAA | < 1e-05 s⁻¹ | – | –

Variant | self-cleavage kobs at 640 uM GlcN6P [1] | self-cleavage kobs at 2500 uM GlcN6P [2] | self-cleavage kobs at 10000 uM GlcN6P [3]
AUAAAAGCGCCCGAACUACAGAAAUGUAGUUGACGAGGAGGAGGUUUAUCGUAUUUUCGGCGGAUGCCUCUAAA | 4.93e-05 ± 1.4e-05 s⁻¹ | 0.000116 ± 2.4e-05 s⁻¹ | –
AUAAAAGCGCCAGAACUACAGAAAUGUAGUUGACGAGAAGGAGGUUUAUCGAAUUUACGGCGGAUUCCUACAAA | 6.22e-05 ± 2.6e-05 s⁻¹ | 6.05e-05 ± 2.3e-05 s⁻¹ | –
AUAAAAGCGCCAGAACUACAGAAAUGUAGUUGACGAGGAGGUGGUGUCUCGAAUUUUCGGCGGAUGCCUCCAAA | < 1e-05 s⁻¹ | – | –
AUAAAAGCGCCAGAACUACAGAAAUGUAGUUGAAGAGGAGGAAGUUUAUCCAAUUGUCGGCGGAUGCCUCCAAA | < 1e-05 s⁻¹ | – | –
AUAAAAGCGCCAGAACUACAGAAAUGUAGUUGACGAGGGGGAGGUUUAACGAAUUUUCGGCGGAUGCUUCCAAA | < 1e-05 s⁻¹ | – | –
AUAAAAGCGCCAGAACUACAGAAAUGUAGUUGACGAGGAGGUGGUUUAUCUCAUUUUCGGCGGAUGCCUGCAAA | < 1e-05 s⁻¹ | – | –
AUAAAAGCGCCAGUACUACAGAAAUGUAGUUGACGUGGAGGAGGUUUAUCGAAUUUUCGGCGGAUGCCGCCAAA | 0.000169 ± 6.2e-05 s⁻¹ | 0.000194 ± 5.8e-05 s⁻¹ | 5.55e-05 ± 1.8e-05 s⁻¹
AUAAAAGGGCCAGAACUACAGAAAUGUAGUUGUCGAGGAGGAGGUAUAUCGAAUUUUCGGCGGAUGCCGCCAAA | < 1e-05 s⁻¹ | < 1e-05 s⁻¹ | –
AUAAAAGCGCCAGAACUACAGAAAUGUAGUUGACGAGGAUGAGGUUUAUCGAAUUUUCGGGGGAGGCCUCCAAA | < 1e-05 s⁻¹ | < 1e-05 s⁻¹ | –
AUAAAAGCGCCUGAACUACAGAAAUGUAGUUGACGAGGAGGGGGUUUAUCGAAUUUUCGGCGGAUGCCUGCAAA | 0.000705 ± 0.00032 s⁻¹ | 0.00109 ± 0.00041 s⁻¹ | –
AUAAAAGCACCAGAACUACAGAAAUGUAGUUGACUAGGAGGAGGUUAAUCGAAUUUUCGGCGGAUGCCUUCAAA | < 1e-05 s⁻¹ | < 1e-05 s⁻¹ | –
AUAAAAGCGCCAGAACUACAGAAAUGUAGUUGACGAGGAGGAGGUUUAUCGAAUUUUGGGCGGCUGUCUCCAAA | 7.21e-05 ± 2e-05 s⁻¹ | – | –
AUAAAAGCUCCAGAACUACAGAAAUGUAGUUGACGAGGAGGAGGUUUAUCGAAUUGUCGGCGGACGGCUCCAAA | < 1e-05 s⁻¹ | – | –
AUAAAAGCGCUAGAACUACAGAAAUGUAGUUGACGAGGAGGAGGUUUAUCGAAUGUUCGGCGGAUGCCUACAAA | 8.31e-05 ± 3.3e-05 s⁻¹ | 0.000101 ± 2.5e-05 s⁻¹ | –
AUAAAAGCUCCAGAACUACAGAAAUGUAGUUGACGAGGAGGAGGUUUAUCGAAUUUUCGACGGAUUCCUCCAAA | < 1e-05 s⁻¹ | – | –
AUAAAAGCGCCAGAACUACAGAAAUGUAGUUGACGAGGAGGAGGUUUAUCAACUUUUCGGCUGAUGCCUCCAAA | – | < 1e-05 s⁻¹ | –
AUAAAAGCGCCAGAACUACAGAAAUGUAGUGGACGAGGAGGAGGCUUAUCGAAUUUUCGGCGGAUGCCUCCAAA | – | 0.000406 ± 0.00014 s⁻¹ | –
AUAAAAGCGCCAGAACUACAGAAAUGUAGUUCACGAGUAGGAGGUUUAUCGAAUUUUGGGCGGAUGCCUCCAAA | – | < 1e-05 s⁻¹ | –
AUAAAAGCGCCAGAACUACAGAAAUGUAGUUGAGGAGAAGGAGUUUUAUCGAAUUUUCGGCGAAUGCCUCCAAA | – | < 1e-05 s⁻¹ | –
AUAAAAGCGCCAAAACUACAGAAAUGUAGUUGACGAGGAGGAGGUUUAUCGAAUUUUCGGCGGAGGCCUCCAAA | – | 8.18e-05 ± 2e-05 s⁻¹ | –
AUAAAAGCGCAAGAAUUACAGAAAUGUAGUUGACGAGGAGGAGGUUUAUCGAAUUUUCGGCGGAUGCCUCUAAA | – | 0.000223 ± 5.3e-05 s⁻¹ | –
AUAAAAGCGCCAGAACUACAGAAAUGUAGUUGACGAGGAGGAGCUUUAUCAAAUCCUCGGCGGAUGCCUCCAAA | – | < 1e-05 s⁻¹ | –
AUAAAAGCGCCAGAACUACAGAAAUGUAGAAGACGAGGAAGAGGUUUAUCGAAUUUGCGGCGGAUGCCUCCAAA | – | < 1e-05 s⁻¹ | –
AUAAAAGCGCCAGAGCUACAGAAAUGUAGAUGACGAGGAGGAGUAUUAUCGAAUUUUCGGCGGAUGCCUCCAAA | – | 0.000178 ± 5.5e-05 s⁻¹ | –
